experiment: soluble on expression in E. coli; label from the status in PepcDB or PDB records

Sequence | soluble on expression in E. coli
MGSDKIHHHHHHMLGLKLPTDPRWVEIVETNIPEILTDHAYCEQKATTNAMYIVINFPEYTELVSDMIDLAQEELQHFKMVHDIIKKRGLVLGRARAAPYAGDIYAFMRKGHIRKYVLIDRLLFSALIEARSCERFRLLSEQISDPELKEFYRELMISEATHYTTFINYARKYSEGEDIDKRWQEFLAYEATVISKYGDNATMHG | not soluble
MGSDKIHHHHHHMLHGKVLVAQGGGPTAVINQSMVGAVLESRKFRNVDLVYGAHHGVRGIVNEDFLDLTQETSHNLEMVAQTPSSGLGSTRDKPDLKYCHEIFEVLKAHGIAYFFYIGGNDSSDTVRIVSEEARKAGYPLRCIHIPKTIDNDLVLNDHTPGFPSAARFVAQAFMGVNLDNAALRGIYLAVVMGRHAGFLTAASALGKKFPEDGPHLIYIPERTFRVDSFLTDVKATYDKYGRCVVALSEGIHDEDGAPIITKLSKATEKDAHGNIQLSGTGALSDLLCEEIKGKLGIKRVRGDTFGYLQRSFIGCVSDVDQREAREVGEKAVQFAMWGDQDGSVTIQRTGFYSVDYKLLPLAAVAGKTRVMEDHFIAESGTDVTDSFRMYLRPLLGSGMPDAFRLRLNSVPRILKK | not soluble
MGSDKIHHHHHHMLHYNALTRGCGRITLLMLGLALCQPVFAHPHSFIDMQTTVESQNDNITGLRMQWTMDPITSADLLYDAGKAKKDSEVWKKLAAEVMANVLGQHYFTDIYRDSQPVKYAPMPTEYHLSRKGNQAILEFVLPLAHPQPLAGKPLLISTYDPTYFVDMSYQNDKAVKLAPALASRCKTSLVTPKPNTELQSYALSLDKNDAPDEDMDLGKQFAQRVTLQCQ | not soluble
MGSDKIHHHHHHMLITAYRERQTRHREKIQRLLNFLKEETYSDFKILMLLFGFRDHKSLYSLLSKVEGMGLIKKHVLVSRTMKISLWGITSDGLAVVLTPDDAIFPARFEPSKITGWTLEHHLDNQVARITLEQKGASGWVNGDRTTFLSRYEVSHRPDGLITLPGGTVIAIETERRLKTKARYQSILASHLLARTRKNWIYVFYIVPDPQKKRGLERLFEGIRHVIINHQHIPLETRHRNVFRIYTLDELQRLNLGHCL | not soluble
MGSDKIHHHHHHMLKCSICINDERITRILIVDGRPICKECKVFLEHPPDKEKIKKELEEILSKVDKAIVAYSGGKDSIVALYLAKEKYSIDVEAVMVDHGFIAPQAIKNAKNVAKYLDVPLTIIKRDYSDIFREALLKAKSPCRKCSRRTMEILRKYALKKGYRYMITGHELPFGHHPYRLMSGGIIQVRILSLMSEEERMKILKKLPVELPELPGYTSNCLILGPALQRFWERHGYSFEHRRIAALVRYGLLNKEKALKKVQKPEVPQWQWELVKKKLKLEDGF | not soluble
MGSDKIHHHHHHMLKDKMIAKGAKYIQSIYQDPFIQGIIKGRLDHDVICHYLQADNIYLGKFADIYALCLAKSDNLRDKQFFLEQIDFTLNRELADGEGPHQALAAYTNRSYQDIIEKGVWYPSADHYIKHMYFHFYENGIAGALAAMSPCPWIYHQLAKKIIEENQFLNGNPFNNWITFYANDTVEELMENYFRMMDYYAQNLSKEKQADLVDAFVKSCQHERRFFQMAINQEKWED | not soluble
MGSDKIHHHHHHMLKKYLISLDKDIQRRELFFSQKNTEDFQVFSAINTMQKDWDELAAIFNIEQFKAHYFRNVTKGEIGCTLSHLSVYQKIVEDNDIAEDSYALVCEDDALFHSDFQQNLTALLSEKLEAEIILLGQSKINDFNDFDLEINYPTTFSFLCKKTGDVNYAFPYKSYFAGTVGYLIKKSAARRFIQQISQNKPFWLADDFLLFEQNFNIRNKVVRPLIVIENPVLISNLESVRGSLSNNLLKKLMKYPLKKIFAIKKNLAN | not soluble
MGSDKIHHHHHHMLKRLLDYNEGEEFDLVLMVKNSELRQDKRGKHYLLMQLADSSGSIRANYWQAKAEDASRFNAGTVVEASGMIEDYHNHDQIKLFSIHPVSPDDQADLSQLVATAPEKPAEMEKEIKDFVAQIDNKNWHDLVDFLLKKWSSRFFAYPAGKSNHHAYKGGLAFHTLTMLKDARGLADNYPAVNRSLLYAGCILHDMGKVLELSGPVATQYTAEGNLVGHLVLIDEQLMLAAQELKIDLASEDLLLLRHMVLSHHGRYEYGSPKLPALLEAELLHRIDDLDAAVNAITTVNCPRPSRGNSPRR | not soluble
MGSDKIHHHHHHMLLTRTQIRRLVYAHGREILEHDHMAIERVCYQHGVVTTFAHSIRVACLSVWLADRLHLWNRVDLRSLIRAALLHDYFLYDWHDWDNGTHRLHGFTHGETAMRNAIRDFKLNQIERDSIEHHMFPLTPYPPKYIEGYLVTAADKISATKETLSFDRFDKPASEQPTDRS | not soluble
